# B1: FGF23^28-251: human FGF23 (A28 to I251), bioactive full-length ligand expressed in E. coli (protein, listed as Homo sapiens)
# chain: ASPLLGSSWGGLIHLYTATARNSYHLQIHKNGHVDGAPHQTIYSALMIRSEDAGFVVITGVMSRRYLCMDFRGNIFGSHYFDPENCRFQHQTLENGYDVYHSPQYHFLVSLGRAKRAFLPGMNPPPYSQFLSRRNEIPLIHFNTPIPRRHTRSAEDDSERDPLNVLKPRARMTPAPASCSQELPSAEDNSPMASDPLGVVRGGRVNTHAGGTGPEGCRPFAKFI
# B2: FGF23^180-251: 72-amino acid C-terminal tail of human FGF23 (S180 to I251), expressed in E. coli (protein, listed as Homo sapiens)
# chain: SAEDDSERDPLNVLKPRARMTPAPASCSQELPSAEDNSPMASDPLGVVRGGRVNTHAGGTGPEGCRPFAKFI
# System: NaPi-2C
# Experiment: NaPi-2C protein abundance in apical brush border membrane of rat kidney
# Type: in vivo
# Settings: IV 0.1 μg kg body weight^−1, 3 h post injection, vs vehicle
# Method: Immunoblot analysis of NaPi-2A and NaPi-2C protein abundance in renal cortex tissue and isolated brush border membrane vesicles (BBMV), and NaPi-2A immunostaining of renal tissue were performed as described (Bacic et al., “Activation of Dopamine Dl-like Receptors Induces Acute Internalization of the Renal Na^+/phosphate Cotransporter NaPi-IIa in Mouse Kidney and OK cells,” Am J Physiol Renal Physiol 288(4):F740-747 (2005), Loffing et al., “Renal Na/H Exchanger NHE-3 and Na—PO4 Cotransporter NaPi-2 Protein Expression in Glucocorticoid Excess and Deficient States,” J Am Soc Nephrol 9(9):1560-1567 (1998), Moe et al., “Dietary NaCl Modulates Na(+)-H+ Antiporter Activity in Renal Cortical Apical Membrane Vesicles,” Am J Physiol 260(1 Pt 2):F130-137 (1991), which are hereby incorporated by reference in their entirety).
# For immunoblot, rat kidney cortices were dissected and homogenized, and BBMV were isolated (Loffing et al., “Renal Na/H Exchanger NHE-3 and Na—PO4 Cotransporter NaPi-2 Protein Expression in Glucocorticoid Excess and Deficient States,” J Am Soc Nephrol 9(9):1560-1567 (1998), Moe et al., “Dietary NaCl Modulates Na(+)-H+ Antiporter Activity in Renal Cortical Apical Membrane Vesicles. Am J Physiol 260(1 Pt 2):F130-137 (1991), which are hereby incorporated by reference in their entirety). […]
row,Molecule,NaPi-2C protein expression in the apical brush border membrane
1,B1,diminished
2,B2,increased
